Data as given in article PMC5842622, “The Entamoeba histolytica TBP and TRF1 transcription factors are GAAC-box binding proteins, which display differential gene expression under different stress stimuli and during the interaction with ma”.

T1: rEhTBP (TATA-box binding protein) (Entamoeba histolytica, UniProt P52653 1-234)
T1 sequence: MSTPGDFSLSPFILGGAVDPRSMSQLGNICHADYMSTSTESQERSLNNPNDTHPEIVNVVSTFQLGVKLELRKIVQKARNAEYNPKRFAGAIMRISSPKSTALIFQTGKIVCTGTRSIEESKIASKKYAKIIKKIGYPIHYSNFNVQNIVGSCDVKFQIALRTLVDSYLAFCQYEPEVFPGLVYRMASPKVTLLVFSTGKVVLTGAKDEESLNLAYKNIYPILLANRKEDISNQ

T2: rEhTRF1 (TBP-related factor 1) (Entamoeba histolytica, UniProt A7UFC2 1-216)
T2 sequence: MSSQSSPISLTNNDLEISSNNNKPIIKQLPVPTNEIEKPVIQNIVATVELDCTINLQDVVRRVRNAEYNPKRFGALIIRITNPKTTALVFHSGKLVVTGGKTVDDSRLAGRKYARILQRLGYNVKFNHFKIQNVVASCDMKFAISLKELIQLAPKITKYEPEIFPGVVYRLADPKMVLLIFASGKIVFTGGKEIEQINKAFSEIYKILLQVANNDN

B1: GAAC-like box (dsDNA)
DNA 1: AGGCGAACTACAAAAGAT
DNA 2: ATCTTTTGTAGTTCGCCT
B2: TAcTcAAA (7) (dsDNA)
DNA 1: AATTCTCTACTCAAAGAGAATT
DNA 2: AATTCTCTTTGAGTAGAGAATT
B3: TATTTAAA (1) (dsDNA)
DNA 1: AATTCTCTATTTAAAGAGAATT
DNA 2: AATTCTCTTTAAATAGAGAATT
B4: TATTTttt (10) (dsDNA)
DNA 1: AATTCTCTATTTTTTGAGAATT
DNA 2: AATTCTCAAAAAATAGAGAATT
B5: gAgTTAAA (6) (dsDNA)
DNA 1: AATTCTCGAGTTAAAGAGAATT
DNA 2: AATTCTCTTTAACTCGAGAATT
B6: TATgTAAA (5) (dsDNA)
DNA 1: AATTCTCTATGTAAAGAGAATT
DNA 2: AATTCTCTTTACATAGAGAATT
B7: cAcTTAAA (9) (dsDNA)
DNA 1: AATTCTCCACTTAAAGAGAATT
DNA 2: AATTCTCTTTAAGTGGAGAATT
B8: TATTggAA (3) (dsDNA)
DNA 1: AATTCTCTATTGGAAGAGAATT
DNA 2: AATTCTCTTCCAATAGAGAATT
B9: GAAC-box (wild type) (dsDNA)
DNA 1: AAGACAATGAACTAGAATG
DNA 2: CATTCTAGTTCATTGTCTT
B10: cAcTcAAA (8) (dsDNA)
DNA 1: AATTCTCCACTCAAAGAGAATT
DNA 2: AATTCTCTTTGAGTGGAGAATT
B11: TATTaAAA (4) (dsDNA)
DNA 1: AATTCTCTATTAAAAGAGAATT
DNA 2: AATTCTCTTTTAATAGAGAATT
B12: TAgTgAAA (2) (dsDNA)
DNA 1: AATTCTCTAGTGAAAGAGAATT
DNA 2: AATTCTCTTTCACTAGAGAATT

biological target: T1, rEhTBP (TATA-box binding protein); assay: EMSA; complex barely competed by specific competitor; EMSA: 12 mM Hepes pH 7.9, 60 mM KCl, 1 mM each DTT, EDTA, spermidine and MgCl2, 10% glycerol, poly(dG-dC) 1 ug/ul, 10 min at 4 C; probe 557 pM (TATA), 64 pM (GAAC) or 82 pM (GAAC-like); conditions: protein: recombinant; tags: His tag; label: 5'-32P; blunt

B1: binds.

biological target: T2, rEhTRF1 (TBP-related factor 1); assay: EMSA; specifically competed; EMSA: 12 mM Hepes pH 7.9, 60 mM KCl, 1 mM each DTT, EDTA, spermidine and MgCl2, 10% glycerol, poly(dG-dC) 1 ug/ul, 10 min at 4 C; probe 557 pM (TATA), 64 pM (GAAC) or 82 pM (GAAC-like); conditions: protein: recombinant; tags: His tag; label: 5'-32P; blunt

B1: binds.

biological target: T1, rEhTBP (TATA-box binding protein); assay: EMSA; 4 C, 1 mM MgCl2; EMSA: 12 mM Hepes pH 7.9, 60 mM KCl, 1 mM each DTT, EDTA, spermidine and MgCl2, 10% glycerol, poly(dG-dC) 1 ug/ul, 10 min at 4 C; probe 557 pM (TATA), 64 pM (GAAC) or 82 pM (GAAC-like); conditions: protein: recombinant; tags: His tag; label: 5'-32P; blunt

Going from B2 to B3, the Kd rises from 0.00276 nM to 0.0207 nM (7.5-fold).

B4 and B5 are within 1.5-fold of each other in Kd: 0.0034 nM for the first, 0.00473 nM for the second.

Going from B6 to B8, the Kd rises from 0.00169 nM to 0.0357 nM (21-fold).

Going from B9 to B10, the Kd rises from 0.019 nM to 0.038 nM (2-fold). The first binds more tightly here.

Compared with B11, B12 is 8.2-fold higher in Kd: 0.00485 nM for the first, 0.0398 nM for the second. The first binds more tightly here.

B7: no binding.

biological target: T2, rEhTRF1 (TBP-related factor 1); assay: as above; conditions: protein: recombinant; tags: His tag; label: 5'-32P; blunt

Going from B2 to B3, the Kd rises from 0.0298 nM to 0.0529 nM (1.8-fold).

Compared with B4, B5 is 3.7-fold lower in Kd: 0.0254 nM for the first, 0.00685 nM for the second. The second binds more tightly here.

B6 and B7 are within 1.5-fold of each other in Kd: 0.00674 nM for the first, 0.00972 nM for the second.

Going from B8 to B9, the Kd rises from 0.0135 nM to 0.0794 nM (5.9-fold). The first binds more tightly here.

Going from B10 to B11, the Kd falls from 0.0308 nM to 0.00398 nM (7.7-fold).

B12 was tested, and the Kd was 0.013 nM.
